# B1: NCPT-2.M11: MG+His6+NCPT-2, SEQ ID NO: 15 (protein)
# chain: MGHHHHHHTLSSPNSKNEKALGRKINSWESSRSGHSFLSNLHLRNGELVIHEKGFYYIYSQTYFRFQEEIKENTKNDKQMVQYIYKYTSYPDPILLMKSARNSCWSKDAEYGLYSIYQGGIFELKENDRIFVSVTNEHLIDMDHEASFFGAFLVGGGGGGTSEETISTVQEKQQNISPLVRERGPQRVAAHITGTRGRSNT
# modifications: NCPT-2.M11 polypeptide sequence
# B2: NCPT-3.M12: MG+His6+NCPT-3, SEQ ID NO: 16 (protein)
# chain: MGHHHHHHTLSSPNSKNEKALGRKINSWESSRSGHSFLSNLHLRNGELVIHEKGFYYIYSQTYFRFQEEIKENTKNDKQMVQYIYKYTSYPDPILLMKSARNSCWSKDAEYGLYSIYQGGIFELKENDRIFVSVTNEHLIDMDHEASFFGAFLVGGGGGGVRERGPQRVAAHITGTRGRSNT
# modifications: NCPT-3.M12 polypeptide sequence
# B3: NCPT-1.M4: His6+NCPT-1, SEQ ID NO: 8 (protein)
# chain: HHHHHHTLSSPNSKNEKALGRKINSWESSRSGHSFLSNLHLRNGELVIHEKGFYYIYSQTYFRFQEEIKENTKNDKQMVQYIYKYTSYPDPILLMKSARNSCWSKDAEYGLYSIYQGGIFELKENDRIFVSVTNEHLIDMDHEASFFGAFLVGGGGGGRVAAHITGTRGRSNT
# modifications: NCPT-1.M4 polypeptide sequence
# B4: wtTRAIL: wild-type TRAIL (protein, UniProt P50591 1-281, looked up)
# Tumor necrosis factor ligand …: MAMMEVQGGPSLGQTCVLIVIFTVLLQSLCVAVTYVYFTNELKQMQDKYSKSGIACFLKEDDSYWDPNDEESMNSPCWQVKWQLRQLVRKMILRTSEETISTVQEKQQNISPLVRERGPQRVAAHITGTRGRSNTLSSPNSKNEKALGRKINSWESSRSGHSFLSNLHLRNGELVIHEKGFYYIYSQTYFRFQEEIKENTKNDKQMVQYIYKYTSYPDPILLMKSARNSCWSKDAEYGLYSIYQGGIFELKENDRIFVSVTNEHLIDMDHEASFFGAFLVG
# B5: NCPT-1.M3: MG+His3+NCPT-1, SEQ ID NO: 7 (protein)
# chain: MGHHHTLSSPNSKNEKALGRKINSWESSRSGHSFLSNLHLRNGELVIHEKGFYYIYSQTYFRFQEEIKENTKNDKQMVQYIYKYTSYPDPILLMKSARNSCWSKDAEYGLYSIYQGGIFELKENDRIFVSVTNEHLIDMDHEASFFGAFLVGGGGGGRVAAHITGTRGRSNT
# modifications: NCPT-1.M3 polypeptide sequence
# B6: NCPT-1.M10: MG+NCPT-1+aa136-141, SEQ ID NO: 14 (protein)
# chain: MGTLSSPNSKNEKALGRKINSWESSRSGHSFLSNLHLRNGELVIHEKGFYYIYSQTYFRFQEEIKENTKNDKQMVQYIYKYTSYPDPILLMKSARNSCWSKDAEYGLYSIYQGGIFELKENDRIFVSVTNEHLIDMDHEASFFGAFLVGGGGGGRVAAHITGTRGRSNTLSSPNS
# modifications: NCPT-1.M10 polypeptide sequence
# B7: NCPT-1.M2: MG+NCPT-1+His6, SEQ ID NO: 6 (protein)
# chain: MGTLSSPNSKNEKALGRKINSWESSRSGHSFLSNLHLRNGELVIHEKGFYYIYSQTYFRFQEEIKENTKNDKQMVQYIYKYTSYPDPILLMKSARNSCWSKDAEYGLYSIYQGGIFELKENDRIFVSVTNEHLIDMDHEASFFGAFLVGGGGGGRVAAHITGTRGRSNTHHHHHH
# modifications: NCPT-1.M2 polypeptide sequence
# B8: NCPT-1.M7: MG+His9+NCPT-1, SEQ ID NO: 11 (protein)
# chain: MGHHHHHHHHHTLSSPNSKNEKALGRKINSWESSRSGHSFLSNLHLRNGELVIHEKGFYYIYSQTYFRFQEEIKENTKNDKQMVQYIYKYTSYPDPILLMKSARNSCWSKDAEYGLYSIYQGGIFELKENDRIFVSVTNEHLIDMDHEASFFGAFLVGGGGGGRVAAHITGTRGRSNT
# modifications: NCPT-1.M7 polypeptide sequence
# B9: NCPT-1.M6: MG+His6+NCPT-1 with linker GGSGGGG, SEQ ID NO: 10 (protein)
# chain: MGHHHHHHTLSSPNSKNEKALGRKINSWESSRSGHSFLSNLHLRNGELVIHEKGFYYIYSQTYFRFQEEIKENTKNDKQMVQYIYKYTSYPDPILLMKSARNSCWSKDAEYGLYSIYQGGIFELKENDRIFVSVTNEHLIDMDHEASFFGAFLVGGGSGGGGRVAAHITGTRGRSNT
# modifications: NCPT-1.M6 polypeptide sequence
# B10: NCPT-1.M8: MG+129-134+NCPT-1, SEQ ID NO: 12 (protein)
# chain: MGTRGRSNTLSSPNSKNEKALGRKINSWESSRSGHSFLSNLHLRNGELVIHEKGFYYIYSQTYFRFQEEIKENTKNDKQMVQYIYKYTSYPDPILLMKSARNSCWSKDAEYGLYSIYQGGIFELKENDRIFVSVTNEHLIDMDHEASFFGAFLVGGGGGGRVAAHITGTRGRSNT
# modifications: NCPT-1.M8 polypeptide sequence
# B11: NCPT-1.M5: MG+His6+NCPT-1 with linker GSGGG, SEQ ID NO: 9 (protein)
# chain: MGHHHHHHTLSSPNSKNEKALGRKINSWESSRSGHSFLSNLHLRNGELVIHEKGFYYIYSQTYFRFQEEIKENTKNDKQMVQYIYKYTSYPDPILLMKSARNSCWSKDAEYGLYSIYQGGIFELKENDRIFVSVTNEHLIDMDHEASFFGAFLVGGSGGGRVAAHITGTRGRSNT
# modifications: NCPT-1.M5 polypeptide sequence
# B12: NCPT-1.M9: MG+Asn6+NCPT-1, SEQ ID NO: 13 (protein)
# chain: MGNNNNNNTLSSPNSKNEKALGRKINSWESSRSGHSFLSNLHLRNGELVIHEKGFYYIYSQTYFRFQEEIKENTKNDKQMVQYIYKYTSYPDPILLMKSARNSCWSKDAEYGLYSIYQGGIFELKENDRIFVSVTNEHLIDMDHEASFFGAFLVGGGGGGRVAAHITGTRGRSNT
# modifications: NCPT-1.M9 polypeptide sequence
# Columns and labels:
# [1] = tested on: NCI-H460 cells; assay: Assay of killing activity on lung cancer cell line (crystal violet, IC50); format: cell-based, human; conditions: for Ratio of IC50 of mutants to IC50 of CPT (H460 cells): 20-24 hours, crystal violet; for killing activity compared to that of CPT: based on IC50
# Protocol: The NCI-H460 cells (ATCC) were cultured in flasks until logarithmic growth phase, digested with 0.25% trypsin (Amresco), collected by centrifugation (1000 rpm, 5 min), resuspended in RPMI1640 medium (Invitrogen) containing 3% fetal bovine serum (FBS), counted and adjusted to 1.5×10^5/ml cell suspension, added into 96-well culture plates (Nunc) at 100 μl/well, and incubated at 37° C. in 5% CO2 incubator overnight. The sample to be tested was diluted to a certain concentration with 1640 medium containing 3% FBS, and further diluted at 4-fold dilutions (8 dilutions). The supernatant in the culture plate was discarded, and serial dilutions of the sample to be tested was added into the plate at 100 μl/well with a negative control and blank control set aside, incubated at 37° C. under 5% CO2 for 20-24 hours. Following examination under microscope, the supernatant was discarded, each well was added 50 μl 0.05% crystal violet solution (50 mg crystal violet was dissolved in 20 ml anhydrous ethanol, and water was added to the volume of 100 ml, then stored at room temperature) and stained for 3-5 minutes. The crystal violet was carefully washed with flowing water, the remaining water was removed by spin-drying, a destaining solution (50 ml distilled water, 50 ml anhydrous ethanol, and 0.1 ml glacial acetic acid were thoroughly mixed and stored at room temperature) was added at 100 μl/well, then the reading at OD570 was measured on a microplate reader (Bio-Rad 680) (reference wavelength of 630 nm). The inhibitory concentration 50 (IC50) of each sample was calculated by a four-parameter Logistic fitting using Sigmaplot10.0 software. The IC50 for CPT and each mutant of NCPT-1, NCPT-2, and NCPT-3 were calculated, and the activity change of each mutant was represented as a ratio of the IC50 of each mutant to that of CPT (Table 1).
# [2] = tested on: human COLO 205 xenograft tumor; assay: Inhibitory activity on human colon cancer xenograft tumors; format: in vivo, Balb/c nu mice
# Protocol: 4 to 5 weeks old Balb/c nu mice ♂ (Institute of Experimental Animals, Chinese Academy of Medical Sciences) were subcutaneously inoculated with COLO 205 human colon tumor tissue pieces. When the tumor grew to the volume of 120 mm3, the tumor-bearing mice were divided into 4 groups (n=7/group), which were intraperitoneally injected with normal saline (negative control group), NCPT-1.M1 5 mg/kg, NCPT-1.M1 15 mg/kg and wtTRAIL 15 mg/kg once a day for 10 consecutive days. […] During the experiment, the tumor length diameter (a) and wide diameter (b) were measured every two days with a vernier caliper, and tumor volume (TV) was calculated according to the following formula: TV=½×a×b^2; From the above, the relative tumor volume (RTV) was calculated according to following formula: RTV=Vt/V0. Wherein V0 is the tumor volume measured on the day of the administration, but before administration (i.e., d0), and Vt is the tumor volume measured every time. The relative tumor proliferation rate T/C (%) is used as an evaluation index. Evaluation criteria: T/C (%)>40% means no effect; T/C (%)≦40% and the statistical significance of P<0.05 means being effective.
# T/C %=RTVT/RTVC*100%. (RTVT: RTV of the treatment group; […]: RTV of the negative control group).
# [3] = 15 mg/kg i.p. once a day for 10 days
Molecule,Ratio of IC50 of mutants to IC50 of CPT (H460 cells) [1],killing activity compared to that of CPT [1],other results
B1,0.47,significantly higher than that of CPT,
B2,0.38,significantly higher than that of CPT,
B3,0.12,significantly higher than that of CPT,
B4,,,"relative tumor volume RTV [2, 3]: 1.58; tumor proliferation rate T/C(%) [2, 3]: 33.98%; Tumor volume TV beginning ([2]; 15 mg/kg i.p. once a day for 10 days, beginning): 127 ± 38.3 mm^3; Tumor volume TV ending ([2]; 15 mg/kg i.p. once a day for 10 days, ending): 212 mm^3; efficacy compared with NCPT-1.M1 ([2]; 15 mg/kg, COLO 205 xenograft, P<0.05): significantly weaker than that of NCPT-1.M1 with the same dosage; evaluation of efficacy (T/C ≦40% and P<0.05 means being effective) ([2]; both dosage groups of NCPT-1.M1 (5, 15 mg/kg), wtTRAIL 15 mg/kg): effective"
B5,0.4,significantly higher than that of CPT,
B6,1.2,slightly decreased compared to that of CPT,
B7,0.1,significantly higher than that of CPT,
B8,0.3,significantly higher than that of CPT,
B9,0.15,significantly higher than that of CPT,
B10,1.5,significantly decreased compared to that of CPT,
B11,0.15,significantly higher than that of CPT,
B12,3.0,significantly decreased compared to that of CPT,
